Measured values reported in PMC10400029, “Bicarbonate activation of the monomeric photosystem II-PsbS/Psb27 complex” (Plant Physiology, 2023).

What was measured:
[1] = molecular target: photosystem II monomer core complex (PSIIm), His6-tagged on PsbE (N. tabacum | N. tabacum (endogenous in tobacco thylakoids)) (UniProt P69384)
[2] = molecular target: T1, PSIIm-S/27 (monomeric photosystem II-PsbS/Psb27 complex) (Nicotiana tabacum, UniProt P69556+P69686); test: flash-induced chlorophyll fluorescence decay; assay type: biochemical; conditions: 10 µM DCMU, 15 °C (also 20 °C), pH 6.5; QB site, blocks electron transfer from QA
T1 construct: gene psbA; native PSII core monomer from stromal lamellae/grana margins; His6 tag at 5' end of psbE; beta-DDM; PsbS and Psb27 quasi-stoichiometric; with Photosystem II CP47 reaction center protein; Photosystem II CP43 reaction center protein; Cytochrome b559 subunit alpha; Cytochrome b559 subunit beta; Photosystem II 22 kDa protein, chloroplastic; Photosystem II repair protein PSB27, chloroplastic

Sequence of PsbS (Q9SMB4 67-274): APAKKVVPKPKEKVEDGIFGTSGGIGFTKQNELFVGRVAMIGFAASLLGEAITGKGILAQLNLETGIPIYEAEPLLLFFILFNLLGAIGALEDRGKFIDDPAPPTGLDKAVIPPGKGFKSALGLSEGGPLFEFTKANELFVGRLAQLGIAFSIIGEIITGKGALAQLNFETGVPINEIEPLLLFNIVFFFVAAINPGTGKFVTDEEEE

Molecule	decay of flash-induced chlorophyll fluorescence yield (QA^•− oxidation) at 15 °C, PSIIm-S/27 against PSIIm [1] [fold]	flash-induced chlorophyll fluorescence decay [2]
Psb27 (natural protein)	10	
PsbS (from UniProt Q9SMB4 67-274) (natural protein)	10	
CN(C)C(=O)Nc1ccc(Cl)c(Cl)c1 [DCMU]		presence of PsbS and/or Psb27 does not interfere with the DCMU binding
